Measured values as given in the nanobody polyreactivity screen of Harvey et al. (2022).

experiment: yeast display, Sf9 membrane polyspecificity reagent, FACS + sequencing; frameworks hold sequencing errors
In short: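 Polyreactivity labels are assigned by the sorting gate from which each nanobody was recovered. The gates were low and high (top ~1%), set on anti-HA fluorescence for expression and streptavidin fluorescence for reagent binding. Before sorting, galactose-induced (36–48 hours) yeast display cells were stained for 1 hour at 4 °C with 10% biotinylated, detergent-solubilized Sf9 membrane reagent.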

Question: With “QVQLVESGGGLVQAGGSLRLSCAASGYTFFLNAMGWYRPAPGNERELVAVITNVGSTYYADSVKGRFTISRDNAKNTVYLQMHSLKPEDTAVYYCAAEYLAYYSGYDYWGQGTQVTVSS” as the sequence, how does the “polyreactivity (PSR sort gate)” value read?
Answer: high polyreactivity

Question: With “QVQLVESGGGLVQAGGSLRLSCAASGYTFFYAMAWYRQAPGKERELVASITSAASTTYADSVKGRFSISRDNAKNTVYLQMNSLKPEDTAVYYCAASHSWWFYPGYYYWGQGTQVTVSS” as the sequence, how does the “polyreactivity (PSR sort gate)” value read?
Answer: high polyreactivity

Question: For “QVQLVESGGGLVQAGGSLRLSCAASGYTFGANVMGWYRQAPGKERELVAAINTRGSRTYYADSVNGRFTISRDNAKNTVYLQMNSLKPEDTAVYYCAAALRKEYDYWGQGTQVTVSS”, which “polyreactivity (PSR sort gate)” value is on record?
Answer: high polyreactivity

Question: Which “polyreactivity (PSR sort gate)” value does the source give for “QVQLVESGGGLVQAGGSLRLSCAASGYTFGFYAMGWYRQAPGKERELVAAISRSGGRTYYADSVKGRFTISRDNAKNTVYLQMNSLKPEDTAVYYCAAYQYGMDYWGQGTQVTVSS” here?
Answer: high polyreactivity

Question: Which “polyreactivity (PSR sort gate)” value does the source give for “QVQLVESGGGLVQAGGSLRLSCAASGYTFGFYGMGWYRQAPGKERDLVAAISRSGGGSTYYADSVKGRFTISRDNAKNTVYLQMNSLKPEDTAVYYCNRDFDDEMWGQGTQVTVSS” here?
Answer: low polyreactivity

Question: With “QVQLVESGGGLVQAGGSLRLSCAASGYTFGQNAMGWYRQAPGKEREFVAAISWSGTSTYYADSVKGRFTISRDNAKNTVYLQMNSLKPEDTALYYCAARSYRYVSRREYWGQGTQVTVSS” as the sequence, how does the “polyreactivity (PSR sort gate)” value read?
Answer: high polyreactivity

Question: Which “polyreactivity (PSR sort gate)” value does the source give for “QVQLVESGGGLVQAGGSLRLSCAASGYTFGSNVMGWYRQAPGKERELVAAITFSGGSTYYADSVKRRFTISRDNAKNTVFLLMIRLKPEDTAVYYCAVRYVRYYAWYYYWGQGTQVTVSS” here?
Answer: high polyreactivity

Question: For “QVQLVESGGGLVQAGGSLRLSCAASGYTFGWYAMGWYRQAPGTERELVAGISSAGSTNYADSVKGRFTISRDNAKNTVYLQMNSLKPEDTAVYYCARDKWGLRYAPTVDYWGQGTQLTVSS”, which “polyreactivity (PSR sort gate)” value is on record?
Answer: high polyreactivity

Question: With “QVQLVESGGGLVQAGGSLRLSCAASGYTFGYNALGWYRQAPGKERELVAAISNGGSTNYADSVKGRFTISRDNAKNTVYLQMNSLKPEDTAVYYCAAASRLHIGYWRYDFWGQGTQVTVSS” as the sequence, how does the “polyreactivity (PSR sort gate)” value read?
Answer: low polyreactivity

Question: With “QVQLVESGGGLVQAGGSLRLSCAASGYTFHDYAMGWYRQAPGKERELVAAISKRGGSTYYADSVKGRFTISRDNAKNTVYLQMNSLKPEDTAVYYCAKGGPHRGTGLNDYWGQGTQVTVSS” as the sequence, how does the “polyreactivity (PSR sort gate)” value read?
Answer: high polyreactivity

Question: For “QVQLVESGGGLVQAGGSLRLSCAASGYTFHYNTMGGYRQAPGKERELVATISDGGSTNYADSVKGRFTISRDNAKNTVYLQMNSLKPEDTAVYYCAALYQQFQSALVPYFDVIEEDYWGQGTQVTVSS”, which “polyreactivity (PSR sort gate)” value is on record?
Answer: low polyreactivity

Question: Which “polyreactivity (PSR sort gate)” value does the source give for “QVQLVESGGGLVQAGGSLRLSCAASGYTFIVNAIGWYRQAPGKERELVAGISYRGGRTFYADSVKGRFTISRDNAKNTVYLQMNSLKPEDTAVYYCAARKTGIPFYNYDYWGQGTQVTVSS” here?
Answer: low polyreactivity

Question: With “QVQLVESGGGLVQAGGSLRLSCAASGYTFNNYAMGWYRQAPGKERELVAAISSSGGSTYYADSVKGRFTISRDNAKNTRYFQMNSLKPEDTAVYYGDGRPFGHGDYRGYYYWGQGTQVTVSS” as the sequence, how does the “polyreactivity (PSR sort gate)” value read?
Answer: low polyreactivity

Question: With “QVQLVESGGGLVQAGGSLRLSCAASGYTFNPYVMGWYSQAPGKERELVAAISSGGSTSYADSVKGRFTISRDNAKNTVYLQMNSLKPEDTAVYYCAADWSYYYSRNYESDYWGQGTQVTVSS” as the sequence, how does the “polyreactivity (PSR sort gate)” value read?
Answer: low polyreactivity

Question: Which “polyreactivity (PSR sort gate)” value does the source give for “QVQLVESGGGLVQAGGSLRLSCAASGYTFPLYAMGWYRQAPGKERELVADINIGGASTYYADSVKGRFTISRDNAKNTVYLQMYSLKPEDTAVYYCAKEYYDGYFPTFDYDYWGQGTQVTVSS” here?
Answer: low polyreactivity

Question: For “QVQLVESGGGLVQAGGSLRLSCAASGYTFPLYAMGWYTQAPGKERELVADINIGGASTYYADSVKGRFTISRDNAKNTVYLQMNSLKPEDTAVYDCAKEYYDGYFPTFEYDYWGQGTQVTVSS”, which “polyreactivity (PSR sort gate)” value is on record?
Answer: low polyreactivity

Question: With “QVQLVESGGGLVQAGGSLRLSCAASGYTFPSYALGWYRQAPGKERELVAVITIGGTYYADSVKGRFTISRDNAKNTVYLQMNSLKPEDTAVYYCAADWAWDYYRGFDYLGQGTQVTVSS” as the sequence, how does the “polyreactivity (PSR sort gate)” value read?
Answer: low polyreactivity

Question: With “QVQLVESGGGLVQAGGSLRLSCAASGYTFPYYTMGWYRQAPGKERELVAAISSGGRTKYADSVKGRFTISRDNAKNTVYLQMNSMKPEDTAVYYCNAVHSPAQCRSKYYPYNYWGQGTQVTVSS” as the sequence, how does the “polyreactivity (PSR sort gate)” value read?
Answer: high polyreactivity

Question: For “QVQLVESGGGLVQAGGSLRLSCAASGYTFQENAMGWYRQAPGKERELVAAISYGGGSTYYADSVKGRFTISRDNAKNTVYLQMNRLKPEDTAVYYCADDGGSAYAWYFAELYGYWGQGTQVTVSS”, which “polyreactivity (PSR sort gate)” value is on record?
Answer: low polyreactivity

Question: Which “polyreactivity (PSR sort gate)” value does the source give for “QVQLVESGGGLVQAGGSLRLSCAASGYTFQHYGMGWYRQAPGKERELVAAITRRGSGTYYADSVKGRFTISRDNAKNTVYLQMNRLKPEDTAVYYCAAAVGHGVDYWGQGTQVTVSS” here?
Answer: high polyreactivity

Question: Which “polyreactivity (PSR sort gate)” value does the source give for “QVQLVESGGGLVQAGGSLRLSCAASGYTFQTYAMGCYRQAPGKERELVAAITRSGTRTYYADSVKGRFTISRDNAKNTVYLQMYSLKPEDTAVYYCAAETYYSIYDYWGQGTQVTVSS” here?
Answer: high polyreactivity

Question: For “QVQLVESGGGLVQAGGSLRLSCAASGYTFQWYDMGWYRQAPGKERELVASISWRGGSTYYADSVKGRFTISRDNAKNTVYLQMNSLKPEDTAVYYCAASLWPDYEYDYWGQGTQVTVSS”, which “polyreactivity (PSR sort gate)” value is on record?
Answer: low polyreactivity

Question: For “QVQLVESGGGLVQAGGSLRLSCAASGYTFQYNDMGWYRQAPGKERELVAGISIGGSTNYADSVKGRFTISRDNAKNTVYLQMNSLKPEDTAVYYCAARTLWFPGTTSTSVGSKYGYWGQGTQVSVSS”, which “polyreactivity (PSR sort gate)” value is on record?
Answer: low polyreactivity

Question: With “QVQLVESGGGLVQAGGSLRLSCAASGYTFRLYAMGWYRQAPGKERELVAAITSRGGTFYADSVKGRFTLSRDNAKNTVYLQMNSLKPEDTAVYYCAVAPNYPDFRRAIYLYDYWGQGTQLTVSS” as the sequence, how does the “polyreactivity (PSR sort gate)” value read?
Answer: low polyreactivity

Question: With “QVQLVESGGGLVQAGGSLRLSCAASGYTFRRYAMGWYRQAPGKERELVAAINYSGGSTYYADSVKGRFTISRDNSKNTVYLQMNSLKPEDTAVYYCAARVPSPYVATYYYWGQGTQVTVSS” as the sequence, how does the “polyreactivity (PSR sort gate)” value read?
Answer: high polyreactivity

Question: For “QVQLVESGGGLVQAGGSLRLSCAASGYTFRSYAMGWYRQAPGKEREFVASISSSGGSTYYADSVKGRFTISRDNAKNTVYLQMNSLKPEDTAVYYCAASVGSYPYDEYDYWGQGTQVTVSS”, which “polyreactivity (PSR sort gate)” value is on record?
Answer: low polyreactivity

Question: Which “polyreactivity (PSR sort gate)” value does the source give for “QVQLVESGGGLVQAGGSLRLSCAASGYTFRTNVMGWYRQAPGKERELVAAISSDGSTNYADSVKGRFTISRDNAKNTVYLQMNSLKPEDTAVYYCAAPWTQILDYWGQGTQVTVSS” here?
Answer: low polyreactivity

Question: Which “polyreactivity (PSR sort gate)” value does the source give for “QVQLVESGGGLVQAGGSLRLSCAASGYTFRWYVMGWYRQAPGKERELVAAISQSGGDTYYADSVKGRFTISRDNAKNTVYLQMNSLKPEDTAVYYCAVGRVGRFYYWGQGTQVTVSS” here?
Answer: high polyreactivity

Question: With “QVQLVESGGGLVQAGGSLRLSCAASGYTFRYNAMGWYRQAPGKERELVASITFSGGRTFYADSVKGRFTISRDNAKNTVYLQMNSLKPEDTAVYYCAAVRWGRRSGGLVAEYDYWGQGTQVTVSS” as the sequence, how does the “polyreactivity (PSR sort gate)” value read?
Answer: high polyreactivity

Question: Which “polyreactivity (PSR sort gate)” value does the source give for “QVQLVESGGGLVQAGGSLRLSCAASGYTFRYNTLGGYSQAPGKEREFVAAISSGVGNTYFAVSVKGRFTISRDNAKNTVYLQMNSLKPEDTAVYYCNADYKSSYYWYLWYNYWGQGTQVTVSS” here?
Answer: low polyreactivity

Question: Which “polyreactivity (PSR sort gate)” value does the source give for “QVQLVESGGGLVQAGGSLRLSCAASGYTFSAYAMGWYRQAPGKERELVAVINRSGVRTYYADSVKGRFTISRDNAKNTVYLQMNSLKPEDTAVYYCAAPPRANLFDYWGQGTQVTVSS” here?
Answer: high polyreactivity

Question: With “QVQLVESGGGLVQAGGSLRLSCAASGYTFSFNAMGWYRKAPGKEREMVAAINRGTSTNYADSVKGRFTISRDNAKNTVYLQMNSLKPEDTAVYYCAAGFRRRAGRYDLDYWGQGTQVTVSS” as the sequence, how does the “polyreactivity (PSR sort gate)” value read?
Answer: high polyreactivity

Question: For “QVQLVESGGGLVQAGGSLRLSCAASGYTFSQNAMGWYRPAPGKERELVAGITTRGTTTYYADSVKGRFTISRDNAKNTVYLQMNSLKPEDTAVYYCAADNSYTDNYWGQGTQVTVSS”, which “polyreactivity (PSR sort gate)” value is on record?
Answer: low polyreactivity

Question: Which “polyreactivity (PSR sort gate)” value does the source give for “QVQLVESGGGLVQAGGSLRLSCAASGYTFSTYAMGWYRQAPGKERELFAAISYSGGRTRYADSVKGRFTISRDNAKNTVYLQMNSLKPEDTAVYYCAAKSGYGYGYWGQGTQVTVSS” here?
Answer: high polyreactivity

Question: With “QVQLVESGGGLVQAGGSLRLSCAASGYTFSYNAMGWYRQAPGKERELVAAISRSGGSTYYADSVKGRFTISRDNAKNTVYLQMNSLKPEDTAVYYCAAKRVSVPYGYWGQGTQVTVSS” as the sequence, how does the “polyreactivity (PSR sort gate)” value read?
Answer: high polyreactivity

Question: For “QVQLVESGGGLVQAGGSLRLSCAASGYTFTGYAMGGYRQAPGKERECVAGITWRTGRTYYADSVKGRFTISRDNAKNTGYLQMNSLIPEDTAVYYCNKDHQRGYYWSYDYWGQGTQVTVSS”, which “polyreactivity (PSR sort gate)” value is on record?
Answer: low polyreactivity

Question: Which “polyreactivity (PSR sort gate)” value does the source give for “QVQLVESGGGLVQAGGSLRLSCAASGYTFTGYAMGGYRQAPGKERELFATITRGGSTYYADSVKGRFTISRDNAKNTVYLPMNSLKPEDTAVYYCATRVQYYVKSTTQYGYGYWGQGTQVTVSS” here?
Answer: low polyreactivity

Question: For “QVQLVESGGGLVQAGGSLRLSCAASGYTFTIYAMGWYRQAPGKERELVAAITGGGGRTYYADSVKGRFTISRDNAKNTVYLQMNSLKPEDTAVYYCAASGPIVGMNYWGQGTQVTVSS”, which “polyreactivity (PSR sort gate)” value is on record?
Answer: high polyreactivity

Question: For “QVQLVESGGGLVQAGGSLRLSCAASGYTFTIYAMGWYRQAPGKERELVASISIDGSTYYADSVKGRFTISRDNAKNTVYLQMNSLKREDTAVYYCAADYYYYTPGFDYWGQGTQVTVSS”, which “polyreactivity (PSR sort gate)” value is on record?
Answer: low polyreactivity

Question: With “QVQLVESGGGLVQAGGSLRLSCAASGYTFTRNAMGWYRQAPGKERELVATISGSGGGTYYADSVKGRFTISRDNAKNTVYLQMNSLKPEDTAVNYCNARRWFYWQGTARYDYWGQGTQVTVSS” as the sequence, how does the “polyreactivity (PSR sort gate)” value read?
Answer: low polyreactivity

Question: With “QVQLVESGGGLVQAGGSLRLSCAASGYTFVGYAMGWYRQAPGKERELVAAITNGGNTNYADSVKGRFTISRDNAKNTVYLQMNSLKPEDTAVYYCATRHSRRYSWIKYYGIGYDYWGQGTQVTVSS” as the sequence, how does the “polyreactivity (PSR sort gate)” value read?
Answer: high polyreactivity

Question: For “QVQLVESGGGLVQAGGSLRLSCAASGYTFVIYAMGWYRQAPGKERELVAAITTIGGRTYYADSVKGRFTISRDNAKNTVYLQMNSLKPEDTAVYYCAADIRSNRLYDGGYWGQGTHVTVSS”, which “polyreactivity (PSR sort gate)” value is on record?
Answer: low polyreactivity

Question: With “QVQLVESGGGLVQAGGSLRLSCAASGYTFVLNAMGWYRQAPGKEREFVAAITWSGGSTYYADSVKGRFTISRDNAKNTVYLQMNSLNPEDTAVYYCAATAHYFGEYDYWGQGTQVTVSS” as the sequence, how does the “polyreactivity (PSR sort gate)” value read?
Answer: low polyreactivity
